Entries after “also recorded” stand apart in the source; their conditions may differ.
Experiments:
[1] = biological target: presynaptic NMDARs of spinal lamina II neurons (Rattus norvegicus, UniProt P35439+Q00959+Q00960)
SNL rats = experiment: Withdrawal thresholds in spinal nerve ligation (SNL), sham and naive rats; format: in vivo, rat
Excerpt: Animal models of neuropathic pain: All surgical preparations and experimental protocols were approved by the Animal Care and Use Committee of the University of Texas MD Anderson Cancer Center and conformed to the National Institutes of Health guidelines for the ethical use of animals. Male Sprague-Dawley rats (8-10 weeks of age) were purchased from Harlan Laboratories (Indianapolis, Ind.). L5 and L6 spinal nerve ligation (SNL) were used as an experimental model of neuropathic pain (Cole et al., 2005). In brief, anesthesia was induced with 2-3% isoflurane, isolated the left L5-L6 spinal nerves and ligated them tightly with 6-0 silk sutures. The rats in the sham control group underwent the same surgical procedures except for the nerve ligation.
Intrathecal catheters were implanted in some SNL group rats during isoflurane-induced anesthesia 2-3 weeks after SNL surgery. Briefly, the anesthetized animal was placed on a stereotaxic frame, and a small incision was made at the back of its neck. Then, a small puncture was made in the atlanto-occipital membrane of the cisterna magna, and a PE-10 catheter (˜8 cm) was inserted with the caudal tip reaching the lumbar enlargement of the spinal cord (Luo et al., 2001; Patel et al., 2013). The rostral end of the catheter was exteriorized and closed the wound with sutures. The animals were allowed to recover for at least 4 days before the intrathecal injections were performed. Animals displaying signs of motor or neurological dysfunction were immediately killed with an intraperitoneal injection of phenobarbital (200 mg/kg) or by inhalation of CO2.
Behavioral assessments of nociception: To detect tactile allodynia, von Frey filaments were applied to the animals' left hindpaws (ipsilateral to the nerve injury). The rats or mice were placed individually in suspended chambers on a mesh floor. After an acclimation period of 30 min, a series of calibrated von Frey filaments were applied (Stoelting, Wood Dale, Ill.) perpendicularly to the plantar surface of the hindpaw with sufficient force to bend the filament for 6 s. Brisk withdrawal or paw flinching was considered a positive response. After a response, the filament of the next lower force was applied. In the absence of a response, the filament of the next greater force was applied. Using the up-down method, the tactile stimulus that produced a 50% likelihood of a withdrawal response was calculated (Fuller-Bicer et al., 2009).
To quantify the mechanical nociceptive threshold in the rats and mice (Patel et al., 2013; Dolphin et al., 2012), the paw pressure tests were conducted on the hindpaw with an analgesiometer (Ugo Basile, Varese, Italy). The device was activated by pressing a foot pedal, which triggered a motor that applied a constantly increasing force on a linear scale. […]

[2] = biological target: T1, α2δ-1-GluN1 protein complex (Mus musculus, UniProt O08532+P35438); experiment: Co-IP of α2δ-1 and GluN1 in mouse brain slices; format: cell-based
T1 construct: from tissue; host or cells: mouse brain slices (hippocampal CA1, hypothalamic PVN, brain tissue membrane extracts)
Protocol: FIGS. 22A-22D: α2δ-1-bound NMDARs contribute to brain injury and neurological deficit caused by MCAO in the brain. (A) Upper: Original gel images of coimmunoprecipitation (co-IP) analysis show the interaction between α2δ-1 and GluN1 in two samples from mouse brain tissues; Lower: Effect of α2δ-1Tat peptide (1 μM for 60 min) on the α2δ-1-GluN1 protein complex in mouse brain tissues (n=6 mice per group). (B) Representative gel images and quantification of co-IP analysis show the effect of OGD on the α2δ-1-GluN1 or α2δ-1-Cav2.2 association in mouse brain tissues (n=6 mice per group). IgG and input were used as negative and positive controls, respectively. (C) Original gel images and quantification of co-IP analysis show the effect of α2δ-1Tat peptide (P) and control peptide (C; both 1 μM for 30 min) on the α2δ-1-GluN1 or α2δ-1-Cav2.2 association in mouse brain slices subjected to OGD (O, n=6 mice per group). (D) Neurological severity scores (left) and representative TTC staining and quantification (right) of brain infarct volume in MCAO mice treated with α2δ-1Tat peptide or control peptide (both 200 μg/kg, i.p.) at 15 min before MCAO and immediately before reperfusion (n=8 mice per group). Data are shown as means±SEM. *p<0.05, **p<0.01 compared with the control peptide- or vehicle-treated group (paired Student's t-test for panels B-D and F; Mann-Whitney test for panel E). […]

[3] = system: surface GluN1, GluN2A, GluN2B; experiment: HEK293 cell membrane surface protein analysis (biotinylation); format: cell-based, rat; parameters: dose or concentration left out as unconfirmed; settings: gabapentin for 60 min
Protocol: Isolation and analysis of HEK293 cell membrane surface proteins: HEK293 cells were transfected with GluN1-1a, GluN2A/GluN2B and/or α2δ-1 after they had grown to 80-90% confluence in 75-cm^2 culture flasks. Cell surface biotinylation was performed using the Pierce Cell Surface Protein Isolation Kit (#89881, Thermo Fisher Scientific) according to the manufacturer's instructions. Briefly, cells were incubated with Sulfo-NHS—SS-biotin, which covalently binds to primary amino groups of extracellular proteins at 4° C. with constant rotation for 30 min. Excess biotin was quenched with quenching solution (Chaplan et al., 1997). The cells were washed, harvested by gentle scraping and lysed using the provided lysis buffer in the cocktail of protease and phosphatase inhibitors (#78440, Thermo Fisher Scientific) for 30 min at 4° C. The lysates were then centrifuged for 2 min at 10,000×g at 4° C., and the clear supernatants were added to NeutrAvidin agarose and incubated for 60 min at 25° C. with end-over-end mixing. The unbound (unbiotinylated) proteins, representing the intracellular fraction, were separated from the captured surface proteins by centrifugation of the column. […] Protein bands were quantified using Image Studio software (version 3.1, LI-COR Biosciences).

[4] = paclitaxel-treated rats, AP5 50 μM, pregabalin 20 μM, peptides 1 μM
[5] = vehicle-treated rats, AP5 50 μM, pregabalin 20 μM, peptides 1 μM

Sequence of presynaptic NMDARs of spinal lamina II neurons (Q00959 20-1464 limits assumed, other chains not shown): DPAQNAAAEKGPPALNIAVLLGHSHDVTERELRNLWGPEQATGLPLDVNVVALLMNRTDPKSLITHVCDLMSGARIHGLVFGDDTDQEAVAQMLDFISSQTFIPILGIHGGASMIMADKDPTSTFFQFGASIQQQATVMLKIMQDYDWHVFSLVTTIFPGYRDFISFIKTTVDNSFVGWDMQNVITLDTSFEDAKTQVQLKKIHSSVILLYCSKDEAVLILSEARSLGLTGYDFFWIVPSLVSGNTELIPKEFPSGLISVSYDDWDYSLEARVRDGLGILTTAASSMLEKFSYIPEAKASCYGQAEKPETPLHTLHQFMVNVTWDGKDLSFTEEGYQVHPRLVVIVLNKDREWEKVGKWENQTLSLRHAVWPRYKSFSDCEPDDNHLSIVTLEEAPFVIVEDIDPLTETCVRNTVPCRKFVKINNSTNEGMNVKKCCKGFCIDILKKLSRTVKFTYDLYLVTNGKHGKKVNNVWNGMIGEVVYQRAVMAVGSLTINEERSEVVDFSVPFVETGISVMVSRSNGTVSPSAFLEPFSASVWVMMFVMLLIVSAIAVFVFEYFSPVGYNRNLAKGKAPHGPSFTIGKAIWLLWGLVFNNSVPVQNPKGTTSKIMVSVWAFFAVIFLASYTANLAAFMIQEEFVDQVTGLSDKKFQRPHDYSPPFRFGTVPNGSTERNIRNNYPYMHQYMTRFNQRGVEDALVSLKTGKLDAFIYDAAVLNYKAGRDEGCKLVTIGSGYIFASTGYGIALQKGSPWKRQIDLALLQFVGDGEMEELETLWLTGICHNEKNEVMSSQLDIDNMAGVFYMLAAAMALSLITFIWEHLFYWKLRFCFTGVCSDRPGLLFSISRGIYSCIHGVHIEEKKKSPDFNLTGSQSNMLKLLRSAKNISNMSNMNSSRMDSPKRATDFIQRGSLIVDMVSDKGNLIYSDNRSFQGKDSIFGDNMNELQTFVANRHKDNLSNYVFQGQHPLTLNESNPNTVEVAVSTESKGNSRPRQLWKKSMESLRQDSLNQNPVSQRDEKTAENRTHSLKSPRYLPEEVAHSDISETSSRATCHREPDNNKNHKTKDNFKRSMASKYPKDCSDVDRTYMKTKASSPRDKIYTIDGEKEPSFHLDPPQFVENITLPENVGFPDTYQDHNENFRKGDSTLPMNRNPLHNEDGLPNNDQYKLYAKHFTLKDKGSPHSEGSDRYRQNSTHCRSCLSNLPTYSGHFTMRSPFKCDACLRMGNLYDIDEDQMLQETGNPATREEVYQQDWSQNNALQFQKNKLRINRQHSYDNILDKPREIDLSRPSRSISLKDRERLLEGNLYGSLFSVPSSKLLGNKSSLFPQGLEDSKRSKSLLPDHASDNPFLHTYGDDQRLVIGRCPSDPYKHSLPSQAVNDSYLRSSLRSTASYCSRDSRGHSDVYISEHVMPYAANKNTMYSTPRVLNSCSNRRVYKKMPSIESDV
Sequence of presynaptic NMDARs of spinal lamina II neurons (Q00960 27-1482, other chains not shown): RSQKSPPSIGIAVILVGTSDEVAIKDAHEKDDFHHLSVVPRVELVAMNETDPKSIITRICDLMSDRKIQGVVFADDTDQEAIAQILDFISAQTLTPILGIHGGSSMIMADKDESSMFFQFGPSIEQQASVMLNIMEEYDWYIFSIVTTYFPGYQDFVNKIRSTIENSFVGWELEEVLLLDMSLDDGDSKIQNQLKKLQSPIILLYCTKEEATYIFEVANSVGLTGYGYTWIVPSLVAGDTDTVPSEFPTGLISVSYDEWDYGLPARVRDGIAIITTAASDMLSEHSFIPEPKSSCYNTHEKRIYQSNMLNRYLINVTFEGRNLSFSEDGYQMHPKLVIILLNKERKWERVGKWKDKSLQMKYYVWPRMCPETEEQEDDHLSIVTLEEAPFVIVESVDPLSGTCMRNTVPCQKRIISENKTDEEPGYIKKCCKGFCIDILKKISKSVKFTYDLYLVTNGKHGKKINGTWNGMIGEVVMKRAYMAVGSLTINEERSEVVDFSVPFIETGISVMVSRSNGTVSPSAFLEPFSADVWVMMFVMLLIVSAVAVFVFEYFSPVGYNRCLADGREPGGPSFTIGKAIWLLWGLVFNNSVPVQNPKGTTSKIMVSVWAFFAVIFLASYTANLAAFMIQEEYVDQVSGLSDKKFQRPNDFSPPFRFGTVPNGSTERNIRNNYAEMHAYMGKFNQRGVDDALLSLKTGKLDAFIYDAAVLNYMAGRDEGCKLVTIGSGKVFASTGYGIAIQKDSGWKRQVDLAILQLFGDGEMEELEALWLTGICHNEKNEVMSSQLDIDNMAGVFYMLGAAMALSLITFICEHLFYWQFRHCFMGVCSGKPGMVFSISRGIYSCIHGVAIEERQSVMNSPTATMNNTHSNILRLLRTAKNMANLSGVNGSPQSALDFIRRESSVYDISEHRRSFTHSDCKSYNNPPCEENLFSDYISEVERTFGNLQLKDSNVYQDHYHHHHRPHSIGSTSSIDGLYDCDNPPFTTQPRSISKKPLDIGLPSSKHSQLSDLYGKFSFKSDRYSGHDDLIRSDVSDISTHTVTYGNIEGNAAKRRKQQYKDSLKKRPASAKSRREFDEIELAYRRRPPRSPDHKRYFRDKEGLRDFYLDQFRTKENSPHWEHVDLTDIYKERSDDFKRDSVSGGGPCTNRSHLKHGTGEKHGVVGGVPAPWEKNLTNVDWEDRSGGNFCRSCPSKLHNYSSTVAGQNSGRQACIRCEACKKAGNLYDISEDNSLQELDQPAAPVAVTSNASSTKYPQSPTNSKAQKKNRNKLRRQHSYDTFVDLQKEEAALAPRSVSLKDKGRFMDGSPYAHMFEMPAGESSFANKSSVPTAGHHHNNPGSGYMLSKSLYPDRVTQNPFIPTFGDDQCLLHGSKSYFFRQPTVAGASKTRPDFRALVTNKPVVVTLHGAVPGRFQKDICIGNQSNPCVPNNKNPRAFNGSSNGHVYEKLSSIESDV
T1 sequence (O08532 25-956 limits assumed, other chains not shown): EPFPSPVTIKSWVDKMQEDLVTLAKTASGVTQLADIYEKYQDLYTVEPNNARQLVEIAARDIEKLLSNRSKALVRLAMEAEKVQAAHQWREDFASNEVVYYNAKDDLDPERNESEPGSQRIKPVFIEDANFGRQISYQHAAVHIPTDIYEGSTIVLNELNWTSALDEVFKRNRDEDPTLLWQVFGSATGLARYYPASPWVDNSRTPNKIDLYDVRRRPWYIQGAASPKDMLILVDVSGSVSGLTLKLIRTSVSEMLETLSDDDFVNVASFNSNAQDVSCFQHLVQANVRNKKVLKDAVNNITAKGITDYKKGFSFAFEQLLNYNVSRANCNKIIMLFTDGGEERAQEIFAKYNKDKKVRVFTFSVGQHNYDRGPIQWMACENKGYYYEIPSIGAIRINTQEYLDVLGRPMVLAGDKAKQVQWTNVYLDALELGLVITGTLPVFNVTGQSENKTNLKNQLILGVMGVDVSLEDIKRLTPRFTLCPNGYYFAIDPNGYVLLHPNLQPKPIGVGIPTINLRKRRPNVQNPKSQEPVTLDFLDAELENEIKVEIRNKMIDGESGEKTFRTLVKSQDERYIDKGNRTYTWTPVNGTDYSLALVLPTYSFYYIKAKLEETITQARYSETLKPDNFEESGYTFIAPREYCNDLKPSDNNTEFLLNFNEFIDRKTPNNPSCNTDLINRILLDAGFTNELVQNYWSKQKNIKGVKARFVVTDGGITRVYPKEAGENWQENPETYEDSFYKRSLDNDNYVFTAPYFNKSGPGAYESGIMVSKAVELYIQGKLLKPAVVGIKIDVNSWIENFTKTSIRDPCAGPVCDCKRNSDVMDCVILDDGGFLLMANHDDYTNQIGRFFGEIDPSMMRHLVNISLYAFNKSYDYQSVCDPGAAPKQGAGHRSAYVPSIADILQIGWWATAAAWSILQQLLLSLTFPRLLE

| Compound | reduced PPR of evoked EPSCs ([1]; paclitaxel-treated rats) | increased amplitude of evoked monosynaptic EPSCs [1, 4] | increased frequency of mEPSCs of lamina II neurons [1, 4] | PPR of evoked EPSCs ([1]; vehicle-treated rats) | amplitude of evoked monosynaptic EPSCs [1, 5] | frequency of mEPSCs of lamina II neurons [1, 5] | pain hypersensitivity of SNL rats (SNL rats; SNL rats, peptides intrathecal or systemic, siRNA intrathecal) | withdrawal thresholds in sham control rats (SNL rats; sham control rats) | α2δ-1-GluN1 interaction in brain tissues subjected to OGD ([2]; OGD, 1 μM for 30 min) | α2δ-1-GluN1 protein complex in brain tissues ([2]; brain slices, 1 μM for 60 min) | surface protein levels of GluN1, GluN2A and GluN2B increased by α2δ-1 coexpression [3] |
| --- | --- | --- | --- | --- | --- | --- | --- | --- | --- | --- | --- |
| YGRKKRRQRRRVSGLNPSLWSIFGLQFILLWLVSGSRHYLW (a2d1 peptide) [α2δ-1Tat peptide, 30-amino-acid peptide mimicking the C-terminal domain of α2δ-1 fused to the cell-penetrating peptide Tat] | fully reversed | completely reversed | completely normalized | had no effect | did not affect | neither incubation with α2δ-1Tat peptide nor bath application of AP5 had any effect | large reduction | had no effect | substantially reduced | large reduction |  |
| NCC1(CC(=O)O)CCCCC1 [gabapentin] |  |  |  |  |  |  |  |  |  |  | normalized; also recorded: reversed |

From patent US11787839B2, “Targeting α2δ-1-bound glutamate receptors for treating diseases and disorders” (Board of Regents, The University of Texas System, priority 2017, dated 2023)
